experiment: yeast display, Sf9 membrane polyspecificity reagent, FACS + sequencing; frameworks hold sequencing errors
Procedure, shortened: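 A synthetic nanobody library was expressed on Saccharomyces cerevisiae BJ5465 by galactose induction for 36–48 hours. The library was stained for 1 hour at 4 °C with 10% biotinylated, detergent-solubilized Sf9 membrane reagent and enriched with streptavidin microbeads before FACS. Low and high (top ~1%) gates were set on anti-HA fluorescence for expression and streptavidin fluorescence for reagent binding, and each polyreactivity label reflects the gate of origin.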

| Sequence | polyreactivity (PSR sort gate) |
| --- | --- |
| QVQLVESGGGLVQAGGSLRLSCASSGRIFTWYAMGWYRQAPGKERELVATISSGGSTNYADSVKGRFTISRDNAKNTVYLHMNSKKPEDTAVYYCAARRFFYRYYYKSDYWGQGTQVTVSS | high polyreactivity |
| QVQLVESGGGLVQAGGSLRLSCASSGRIFYPNAMGWYRQAPGIERELVAAISSRGGSTYYADSVKGRFTISRDNAKNTVYLQMNSLKPEDTAVYYCNRVYYTIGYDYWGQGTQVSVSS | high polyreactivity |
| QVQLVESGGGLVQAGGSLRLSCASSGRISYRNAMGWYRQAPGKERELVAAISSSGDSTYYADAVKGRFTISRDNAKNTVYLQMNSLKPEDTAVYYCAARHSAVYYGYHRYYYWGQGTQVTVSS | high polyreactivity |
| QVQLVESGGGLVQAGGSLRLSCASSGRIYVYTMGWYRQAPGKERELVATITRSGGSTYYADSVKGRFTISRDNAKNTVYLQMNSLKPEDTAVYYCNAVGRFTPYSSRREYDYWGQGTQVTVSS | low polyreactivity |
| QVQLVESGGGLVQAGGSLRLSCASSGRTFGTNTMGWYRQAPGKERELVAAISRSGVRTYYADSVKGRFTISRDNAKNTVYLQMKSLKAEDTAVYYCATDYKVHGFDYWGQGTQVSVSS | high polyreactivity |
| QVQLVESGGGLVQAGGSLRLSCASSGRTFPAYVMGWYREAPGKERDLVAAISRGGSTYYADSVKGRFTISRDNAKNTVYFQMNSLKPEDTAVFYCAARWSYSRYTGNDYSRLGKFYYWGQGTQVTVSS | high polyreactivity |
| QVQLVESGGGLVQAGGSLRLSCASSGRTFRVNAMVRYRHAPGKERELFAAITYTGGSTYYADSVKGRFTISRDNAKNTVYLQMNSLKPEDTAVYYCAARITSPRASSRGFYYWGQGTQVTVSS | high polyreactivity |
| QVQLVESGGGLVQAGGSLRLSCASSGRTFWFYTMGWYRQAPGKERELVAAISSGGSTNYADSVKGRFTISRDNAKNTVYLQMNSLKPEDTAVYYCNKPPPNRGRYDYWGQGTQVTVSS | low polyreactivity |
| QVQLVESGGGLVQAGGSLRLSCASSGRTFYRNAMGWYRQAPGKERELVAAIRGSGSSTYYADSVKGRFTISRDNAKNSVYLQMKSLKQEDTAVYYCAADYINYNGYARYYFWGQGTQVTVSS | high polyreactivity |
| QVQLVESGGGLVQAGGSLRLSCASSGRTFYRNAMGWYRQAPGKERELVAAITSGGSTYYADSVKGRFTISRDNAKNTVYLQMNSLKPEDNAVYYCAKRIGWVPSRSWTPAFWGQGTQVNVSS | low polyreactivity |
| QVQLVESGGGLVQAGGSLRLSCASSGRTIGVYAMGWYRQAPGKERELVAAISWSGGTTYYADSVKGRFTISRDNAKNTVYLQMNSLKPEDTAVYYCAADSYTEVDYWGQGTQVTVSS | low polyreactivity |
| QVQLVESGGGLVQAGGSLRLSCASSGSIFAFNTLGWYRQAPGKERELVAAINSGGSTYYADSVKGRFTISRDNAKNTVYLQMNSLKPEDTAVYYCNARSYGIVVEYDYWGQGTQVTVSS | low polyreactivity |
| QVQLVESGGGLVQAGGSLRLSCASSGSIFDFNAMGWYRQAPGKERELVATIRYSGGSTYYADSVKGRFTISRDNAKNTVYLQMNSLKPVDTAVYYCAADPDWTHWFAYYYHYGYWGQGTQVTVSS | low polyreactivity |
| QVQLVESGGGLVQAGGSLRLSCASSGSIFDVNAMGWYRPAPGKERELVAAISQRGTRTYYADSVKGSFTISRDNAKNTVYLQMNSLKPEDTAVYYCNRGGWRQYDSWGQGSQVTVSS | high polyreactivity |
| QVQLVESGGGLVQAGGSLRLSCASSGSIFLSYTMGWYRKAPGKERELVAAISKRGGSSYYADSVKGRFTISRDNAKNTVYFQMNTLIPEDTAVYYFNADVRYRRRISVTNVYDYWGQGTQVTVSS | high polyreactivity |
| QVQLVESGGGLVQAGGSLRLSCASSGSIFNTYTMGWYRQAPGKDRELVAAISSGGSTYYADSVKGRFTISRDNAKKTVYLQMNSLKPEDTAVYYCAAYGHSFQIYDYWGQGTHVTVSS | low polyreactivity |
